In patent US20240076371A1, “COMPOSITIONS AND METHODS FOR TREATING OSTEOARTHRITIS, RHEUMATOID ARTHRITIS, AND JOINT AND TENDON DISORDERS” (BOARD OF REGENTS, THE UNIVERSITY OF TEXAS SYSTEM, priority 2021, published 2024):

Legend:
Cx43 hemichannel = biological target: T1, Cx43 hemichannel (Mus musculus, UniProt P23242); assay: In vivo Evans Blue dye uptake assay in synovium after DMM; settings: 25 mg/kg at 30 mins after DMM surgery, Evans Blue 200 mg/kg at two weeks after the treatment; DMM increased opening by 2 folds
T1 construct: from tissue; host or cells: synovium of male C57BL/6 mice after DMM surgery (in vivo)
Description: In vivo dye uptake assay. Evans Blue dye (Mw: 900 Da) (200 mg/kg) and FITC-dextran (Mw: 10,000 Da) (200 mg/kg) were co-injected […] post-antibody treatment via the tail vein. One-hour post administration of the dye, mice were anesthetized, and cardiac perfusion was performed with cold PBS and 4% paraformaldehyde. Both hindlimbs were isolated and prepared for frozen sections. Sections were stained with DAPI and photographed using the Keyence microscope (BZ-X710, Keyence, Osaka, Japan). The intensity of dye uptake was quantified by NIH Image J software.
To determine the Cx43 hemichannel activity in vivo, Evans Blue dye uptake assay was performed. Mice were treated with saline or Cx43 antibody (M1 antibody) (25 mg/kg) at 30 mins after DMM surgery. Tail vein injection of Evans Blue dye (200 mg/kg) was performed at two weeks after the treatment, and Evans Blue dye uptake intensity was quantified in synovium region. […] Frozen sections prepared from saline-treated mice were immuno-labeled with the M1 antibody, further validated the role of the M1 antibody in blocking the osteoarthritis induced hemichannel opening in synoviocytes that express Cx43 (FIG. 11C).

[1] = system: knee joint region (synovium); assay: In vivo antibody binding pattern in the knee joint (immunofluorescence); set-up: species or system mouse
Description: Immunofluorescent staining. The isolated femur and tibia bones were fixed in 4% paraformaldehyde for 2 days prior to decalcification with 10% EDTA (pH 7.5) for 3 weeks, and then dehydrated in 30% sucrose/PBS for 3 days. Samples were embedded in the Tissue-Tek CRYO OCT compound (Thermo Fisher Scientific, Pittsburgh, PA, USA), and 12-μm-thick sections were collected on glass slides. Sections were blocked and permeabilized with 2% goat serum, 2% fish skin gelatin, 0.025% Triton X-100 and 1% bovine serum albumin in PBS. The sections were incubated overnight at 4° C. with affinity-purified antibodies against Cx43 (CT) (1:100) (Cherian P P, et al. The Journal of biological chemistry. 2003; 278(44):43146-56), for 1 hour with the appropriate secondary antibody. Slides were mounted using Vectashield mounting medium (H-1000, Vector Lab). Confocal fluorescence imaging was performed using a confocal laser scanning microscope (LSM770, Carl Zeiss, Oberkochen, Germany).
M1 antibody binds to synovium and inhibits hemichannel opening in OA. Due to the dense nature of cartilage and large size of antibodies, a widely held perception is that antibodies are unable to penetrate the cartilage matrix. To determine the antibody binding pattern in the knee joint region, M1 antibody (25 mg/kg) with human IgG epitope or saline was intraperitoneally (i.p.) injected at 30 mins after DMM surgery. As shown in the diagram (FIG. 8A), mice were euthanized and perfused before isolation of hindlimbs at one or two weeks after injection. Frozen tissue sections were prepared and immuno-labeled with Alexa Fluor 594-conjugated anti-human IgG secondary antibody. […] The synovium of joints comprises macrophage-like type A cells, which are responsible for phagocytosing synovial fluid, and fibroblast-like type B cells, which produce hyaluronic acid and mucin to nourish and mechanically protect, respectively, the underlying articular cartilage (Donahue H J, et al. Nature reviews Rheumatology. 2017; 14(1):42-51). […]

[2] = system: post-traumatic OA model (DMM) in male C57BL/6 mice; assay: DMM OA model: synovitis score; type: in vivo, mouse; settings: vs saline
Description: Destabilization of the medial meniscus (DMM) surgery was performed on the right knee joint of mice (Glasson S S, et al. Osteoarthritis and cartilage. 2007; 15(9):1061-9). Briefly, a 3 mm longitudinal incision over the distal patella to proximal tibial plateau was made. The joint capsule immediately medial to the patellar tendon was incised with a #15 blade and the joint capsule opened with micro-iris scissors. Blunt dissection of the fat pad over the intercondylar area was then performed to expose the intercondylar region, providing visualization of the meniscotibial ligament of the medial meniscus. Mild hemorrhage from the fat pad upon blunt dissection was controlled by pressure from absorption spears. Sectioning of medial meniscotibial ligament with micro-surgical knife, with the blade directed proximo-laterally, gave destabilization of the medial meniscus (DMM). Sham surgery was performed with the ligament visualized but not transected.
The degree of synovitis is determined considering synovial membrane thickening and synovial hyperplasia and scored on a scale of 0-3 (0, no synovitis; 1, mild synovitis; 2, moderate synovitis; and 3, severe synovitis) (Krenn V, et al. Pathology, research and practice. 2002; 198(5):317-25; and Huesa C, et al. Annals of the rheumatic diseases. 2016; 75(11):1989-97. Blinded histomorphometric assessment was performed.

T1 sequence (P23242 whole entry): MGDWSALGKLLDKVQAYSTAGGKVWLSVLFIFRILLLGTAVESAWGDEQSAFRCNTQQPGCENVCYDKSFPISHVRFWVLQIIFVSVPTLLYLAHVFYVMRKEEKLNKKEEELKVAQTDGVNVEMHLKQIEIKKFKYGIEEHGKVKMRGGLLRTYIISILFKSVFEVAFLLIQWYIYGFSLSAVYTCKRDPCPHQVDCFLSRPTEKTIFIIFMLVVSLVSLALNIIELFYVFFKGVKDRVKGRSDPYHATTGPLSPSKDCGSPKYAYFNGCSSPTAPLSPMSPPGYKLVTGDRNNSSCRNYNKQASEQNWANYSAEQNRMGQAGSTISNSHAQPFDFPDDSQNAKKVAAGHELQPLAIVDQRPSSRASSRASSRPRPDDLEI

B1: M1 antibody: antibody with variable heavy chain SEQ ID NO: 58 and variable light chain SEQ ID NO: 60; inhibits or blocks opening of Cx43 hemichannel (antibody, V domains shown)
VH: EVQLQQPGAELVKPGASVKLSCKASGYTFTSYYMYWVKQRPGQGLEWIGGINPSNGGTNFNEKFKNKATLTVDKSSSTAYMQLSSLTSEDSAVYYCTREGNPYYTMNYWGQGTSVTVSS
VL: DIVMTQSPSSLSVSAGEKVTMSCKSSQSLLNSGNQKTYLAWYQQKPGQPPKLLIYGASTRESGVPDRFTGSGSGTDFTLTISSVQAEDLAVYYCQNDHSYPFTFGSGTKLEIK
DMM-increased hemichannel opening (Evans Blue dye uptake intensity in synovium region) (Cx43 hemichannel): blocked | antibody binding site in the knee joint region ([1]; 25 mg/kg i.p. at 30 mins after DMM surgery, anti-human IgG secondary antibody): primarily localized in the synovium region | antibody signal after administration ([1]; 25 mg/kg i.p. at 30 mins after DMM surgery, one or two weeks after injection): detectable at both one and two weeks | time after administration at which antibody signals were detected ([1]; synovium region): more than 2 weeks | degree of synovitis (synovitis score) ([2]; DMM mice, i.p. twice at 30 minutes and four weeks post-surgery, 8 weeks after DMM): marked reduction | degree of synovitis (synovitis score) ([2]; delayed treatment: i.p. at 10, 25 and 40 days after DMM surgery, eight weeks after DMM): significant reduction
